Results as given in patent US20220040297A1 (Chugai, published 2022).

The binders below were run against CD3ε homodimer protein (human, UniProt P07766 23-126, limits assumed) (assay: SPR, immobilized CD3ε homodimer;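 also: biacore T200 surface plasmon resonance at 25 °C, antibody variants flowed as analytes over amine-coupled CD3ε homodimer on a CM4 chip, variant binding amount divided by that of GLS3000 antibody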).
CD3ε homodimer protein, sequence (P07766 23-126 limits assumed): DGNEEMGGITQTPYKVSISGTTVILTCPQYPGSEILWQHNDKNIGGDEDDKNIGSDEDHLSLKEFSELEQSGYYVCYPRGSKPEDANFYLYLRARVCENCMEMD

ratio of amounts bound (vs GLS3000)	Binder
0.36	GLS3000 N28P (antibody, name in Kabat numbering, V domains shown, one-arm format as m2) VH: QVQLVESGGGVVQPGRSLRLSCAASGFTFSNAWMHWVRQAPGKGLEWVAQIKAKSNNYATYYAESVKGRFTISRDDSKNSLYLQMNSLKTEDTAVYYCRYVHYGAYYGVDAWGQGTTVTVSS VL: DIVMTQSPLSLPVTPGEPASISCRSSQSLVHSPRNTYLHWYQQKPGQAPRLLIYKVSNRFSGVPDRFSGSGSGTDFTLKISRVEAEDVGVYYCGQGTQVPYTFGQGTKLEIK
0.39	GLS3000 N28M (antibody, name in Kabat numbering, V domains shown, one-arm format as m2) VH: QVQLVESGGGVVQPGRSLRLSCAASGFTFSNAWMHWVRQAPGKGLEWVAQIKAKSNNYATYYAESVKGRFTISRDDSKNSLYLQMNSLKTEDTAVYYCRYVHYGAYYGVDAWGQGTTVTVSS VL: DIVMTQSPLSLPVTPGEPASISCRSSQSLVHSMRNTYLHWYQQKPGQAPRLLIYKVSNRFSGVPDRFSGSGSGTDFTLKISRVEAEDVGVYYCGQGTQVPYTFGQGTKLEIK
0.34	GLS3000 N30D (antibody, name in Kabat numbering, V domains shown, one-arm format as m2) VH: QVQLVESGGGVVQPGRSLRLSCAASGFTFSNAWMHWVRQAPGKGLEWVAQIKAKSNNYATYYAESVKGRFTISRDDSKNSLYLQMNSLKTEDTAVYYCRYVHYGAYYGVDAWGQGTTVTVSS VL: DIVMTQSPLSLPVTPGEPASISCRSSQSLVHSNRDTYLHWYQQKPGQAPRLLIYKVSNRFSGVPDRFSGSGSGTDFTLKISRVEAEDVGVYYCGQGTQVPYTFGQGTKLEIK
0.26	GLS3000 N28Y (antibody, name in Kabat numbering, V domains shown, one-arm format as m2) VH: QVQLVESGGGVVQPGRSLRLSCAASGFTFSNAWMHWVRQAPGKGLEWVAQIKAKSNNYATYYAESVKGRFTISRDDSKNSLYLQMNSLKTEDTAVYYCRYVHYGAYYGVDAWGQGTTVTVSS VL: DIVMTQSPLSLPVTPGEPASISCRSSQSLVHSYRNTYLHWYQQKPGQAPRLLIYKVSNRFSGVPDRFSGSGSGTDFTLKISRVEAEDVGVYYCGQGTQVPYTFGQGTKLEIK
0.36	GLS3000 N28V (antibody, name in Kabat numbering, V domains shown, one-arm format as m2) VH: QVQLVESGGGVVQPGRSLRLSCAASGFTFSNAWMHWVRQAPGKGLEWVAQIKAKSNNYATYYAESVKGRFTISRDDSKNSLYLQMNSLKTEDTAVYYCRYVHYGAYYGVDAWGQGTTVTVSS VL: DIVMTQSPLSLPVTPGEPASISCRSSQSLVHSVRNTYLHWYQQKPGQAPRLLIYKVSNRFSGVPDRFSGSGSGTDFTLKISRVEAEDVGVYYCGQGTQVPYTFGQGTKLEIK
0.32	GLS3000 N28S (antibody, name in Kabat numbering, V domains shown, one-arm format as m2) VH: QVQLVESGGGVVQPGRSLRLSCAASGFTFSNAWMHWVRQAPGKGLEWVAQIKAKSNNYATYYAESVKGRFTISRDDSKNSLYLQMNSLKTEDTAVYYCRYVHYGAYYGVDAWGQGTTVTVSS VL: DIVMTQSPLSLPVTPGEPASISCRSSQSLVHSSRNTYLHWYQQKPGQAPRLLIYKVSNRFSGVPDRFSGSGSGTDFTLKISRVEAEDVGVYYCGQGTQVPYTFGQGTKLEIK
0.41	GLS3000 N28W (antibody, name in Kabat numbering, V domains shown, one-arm format as m2) VH: QVQLVESGGGVVQPGRSLRLSCAASGFTFSNAWMHWVRQAPGKGLEWVAQIKAKSNNYATYYAESVKGRFTISRDDSKNSLYLQMNSLKTEDTAVYYCRYVHYGAYYGVDAWGQGTTVTVSS VL: DIVMTQSPLSLPVTPGEPASISCRSSQSLVHSWRNTYLHWYQQKPGQAPRLLIYKVSNRFSGVPDRFSGSGSGTDFTLKISRVEAEDVGVYYCGQGTQVPYTFGQGTKLEIK
0.5	GLS3000 N30A (antibody, name in Kabat numbering, V domains shown, one-arm format as m2) VH: QVQLVESGGGVVQPGRSLRLSCAASGFTFSNAWMHWVRQAPGKGLEWVAQIKAKSNNYATYYAESVKGRFTISRDDSKNSLYLQMNSLKTEDTAVYYCRYVHYGAYYGVDAWGQGTTVTVSS VL: DIVMTQSPLSLPVTPGEPASISCRSSQSLVHSNRATYLHWYQQKPGQAPRLLIYKVSNRFSGVPDRFSGSGSGTDFTLKISRVEAEDVGVYYCGQGTQVPYTFGQGTKLEIK
0.39	GLS3000 N28L (antibody, name in Kabat numbering, V domains shown, one-arm format as m2) VH: QVQLVESGGGVVQPGRSLRLSCAASGFTFSNAWMHWVRQAPGKGLEWVAQIKAKSNNYATYYAESVKGRFTISRDDSKNSLYLQMNSLKTEDTAVYYCRYVHYGAYYGVDAWGQGTTVTVSS VL: DIVMTQSPLSLPVTPGEPASISCRSSQSLVHSLRNTYLHWYQQKPGQAPRLLIYKVSNRFSGVPDRFSGSGSGTDFTLKISRVEAEDVGVYYCGQGTQVPYTFGQGTKLEIK
0.45	GLS3000 N28T (antibody, name in Kabat numbering, V domains shown, one-arm format as m2) VH: QVQLVESGGGVVQPGRSLRLSCAASGFTFSNAWMHWVRQAPGKGLEWVAQIKAKSNNYATYYAESVKGRFTISRDDSKNSLYLQMNSLKTEDTAVYYCRYVHYGAYYGVDAWGQGTTVTVSS VL: DIVMTQSPLSLPVTPGEPASISCRSSQSLVHSTRNTYLHWYQQKPGQAPRLLIYKVSNRFSGVPDRFSGSGSGTDFTLKISRVEAEDVGVYYCGQGTQVPYTFGQGTKLEIK
0.37	GLS3000 N28Q (antibody, name in Kabat numbering, V domains shown, one-arm format as m2) VH: QVQLVESGGGVVQPGRSLRLSCAASGFTFSNAWMHWVRQAPGKGLEWVAQIKAKSNNYATYYAESVKGRFTISRDDSKNSLYLQMNSLKTEDTAVYYCRYVHYGAYYGVDAWGQGTTVTVSS VL: DIVMTQSPLSLPVTPGEPASISCRSSQSLVHSQRNTYLHWYQQKPGQAPRLLIYKVSNRFSGVPDRFSGSGSGTDFTLKISRVEAEDVGVYYCGQGTQVPYTFGQGTKLEIK

More lines, now with the values behind:

Binder	ratio of amounts bound (vs GLS3000)
GLS3000 L33P (antibody, name in Kabat numbering, V domains shown, one-arm format as m2) VH: QVQLVESGGGVVQPGRSLRLSCAASGFTFSNAWMHWVRQAPGKGLEWVAQIKAKSNNYATYYAESVKGRFTISRDDSKNSLYLQMNSLKTEDTAVYYCRYVHYGAYYGVDAWGQGTTVTVSS VL: DIVMTQSPLSLPVTPGEPASISCRSSQSLVHSNRNTYPHWYQQKPGQAPRLLIYKVSNRFSGVPDRFSGSGSGTDFTLKISRVEAEDVGVYYCGQGTQVPYTFGQGTKLEIK	0.3
GLS3000 N28E (antibody, name in Kabat numbering, V domains shown, one-arm format as m2) VH: QVQLVESGGGVVQPGRSLRLSCAASGFTFSNAWMHWVRQAPGKGLEWVAQIKAKSNNYATYYAESVKGRFTISRDDSKNSLYLQMNSLKTEDTAVYYCRYVHYGAYYGVDAWGQGTTVTVSS VL: DIVMTQSPLSLPVTPGEPASISCRSSQSLVHSERNTYLHWYQQKPGQAPRLLIYKVSNRFSGVPDRFSGSGSGTDFTLKISRVEAEDVGVYYCGQGTQVPYTFGQGTKLEIK	0.4
GLS3000 N28K (antibody, name in Kabat numbering, V domains shown, one-arm format as m2) VH: QVQLVESGGGVVQPGRSLRLSCAASGFTFSNAWMHWVRQAPGKGLEWVAQIKAKSNNYATYYAESVKGRFTISRDDSKNSLYLQMNSLKTEDTAVYYCRYVHYGAYYGVDAWGQGTTVTVSS VL: DIVMTQSPLSLPVTPGEPASISCRSSQSLVHSKRNTYLHWYQQKPGQAPRLLIYKVSNRFSGVPDRFSGSGSGTDFTLKISRVEAEDVGVYYCGQGTQVPYTFGQGTKLEIK	0.44
GLS3000 N28F (antibody, name in Kabat numbering, V domains shown, one-arm format as m2) VH: QVQLVESGGGVVQPGRSLRLSCAASGFTFSNAWMHWVRQAPGKGLEWVAQIKAKSNNYATYYAESVKGRFTISRDDSKNSLYLQMNSLKTEDTAVYYCRYVHYGAYYGVDAWGQGTTVTVSS VL: DIVMTQSPLSLPVTPGEPASISCRSSQSLVHSFRNTYLHWYQQKPGQAPRLLIYKVSNRFSGVPDRFSGSGSGTDFTLKISRVEAEDVGVYYCGQGTQVPYTFGQGTKLEIK	0.46
GLS3000 L33V (antibody, name in Kabat numbering, V domains shown, one-arm format as m2) VH: QVQLVESGGGVVQPGRSLRLSCAASGFTFSNAWMHWVRQAPGKGLEWVAQIKAKSNNYATYYAESVKGRFTISRDDSKNSLYLQMNSLKTEDTAVYYCRYVHYGAYYGVDAWGQGTTVTVSS VL: DIVMTQSPLSLPVTPGEPASISCRSSQSLVHSNRNTYVHWYQQKPGQAPRLLIYKVSNRFSGVPDRFSGSGSGTDFTLKISRVEAEDVGVYYCGQGTQVPYTFGQGTKLEIK	1.05
GLS3000 N28H (antibody, name in Kabat numbering, V domains shown, one-arm format as m2) VH: QVQLVESGGGVVQPGRSLRLSCAASGFTFSNAWMHWVRQAPGKGLEWVAQIKAKSNNYATYYAESVKGRFTISRDDSKNSLYLQMNSLKTEDTAVYYCRYVHYGAYYGVDAWGQGTTVTVSS VL: DIVMTQSPLSLPVTPGEPASISCRSSQSLVHSHRNTYLHWYQQKPGQAPRLLIYKVSNRFSGVPDRFSGSGSGTDFTLKISRVEAEDVGVYYCGQGTQVPYTFGQGTKLEIK	0.42
GLS3000 N28I (antibody, name in Kabat numbering, V domains shown, one-arm format as m2) VH: QVQLVESGGGVVQPGRSLRLSCAASGFTFSNAWMHWVRQAPGKGLEWVAQIKAKSNNYATYYAESVKGRFTISRDDSKNSLYLQMNSLKTEDTAVYYCRYVHYGAYYGVDAWGQGTTVTVSS VL: DIVMTQSPLSLPVTPGEPASISCRSSQSLVHSIRNTYLHWYQQKPGQAPRLLIYKVSNRFSGVPDRFSGSGSGTDFTLKISRVEAEDVGVYYCGQGTQVPYTFGQGTKLEIK	0.44
GLS3000 N28D (antibody, name in Kabat numbering, V domains shown, one-arm format as m2) VH: QVQLVESGGGVVQPGRSLRLSCAASGFTFSNAWMHWVRQAPGKGLEWVAQIKAKSNNYATYYAESVKGRFTISRDDSKNSLYLQMNSLKTEDTAVYYCRYVHYGAYYGVDAWGQGTTVTVSS VL: DIVMTQSPLSLPVTPGEPASISCRSSQSLVHSDRNTYLHWYQQKPGQAPRLLIYKVSNRFSGVPDRFSGSGSGTDFTLKISRVEAEDVGVYYCGQGTQVPYTFGQGTKLEIK	0.19
GLS3000 N28A (antibody, name in Kabat numbering, V domains shown, one-arm format as m2) VH: QVQLVESGGGVVQPGRSLRLSCAASGFTFSNAWMHWVRQAPGKGLEWVAQIKAKSNNYATYYAESVKGRFTISRDDSKNSLYLQMNSLKTEDTAVYYCRYVHYGAYYGVDAWGQGTTVTVSS VL: DIVMTQSPLSLPVTPGEPASISCRSSQSLVHSARNTYLHWYQQKPGQAPRLLIYKVSNRFSGVPDRFSGSGSGTDFTLKISRVEAEDVGVYYCGQGTQVPYTFGQGTKLEIK	0.25
GLS3000 N28G (antibody, name in Kabat numbering, V domains shown, one-arm format as m2) VH: QVQLVESGGGVVQPGRSLRLSCAASGFTFSNAWMHWVRQAPGKGLEWVAQIKAKSNNYATYYAESVKGRFTISRDDSKNSLYLQMNSLKTEDTAVYYCRYVHYGAYYGVDAWGQGTTVTVSS VL: DIVMTQSPLSLPVTPGEPASISCRSSQSLVHSGRNTYLHWYQQKPGQAPRLLIYKVSNRFSGVPDRFSGSGSGTDFTLKISRVEAEDVGVYYCGQGTQVPYTFGQGTKLEIK	0.46
